We go through 1 molecule from paper PMC4999505, “Linear ubiquitination is involved in the pathogenesis of optineurin-associated amyotrophic lateral sclerosis” (Nature Communications, 2016).

The stoichiometry N is the number of molecules, sites or subunits per partner or assembly.

Series [1] deals with the molecule itself. Kind of series: crystal structure; OPTN CC2-UBAN (416–510) crystallised with linear tetraubiquitin, hanging drop, 16% PEG 3350, 250 mM HCOOK, 20 °C; 2.7 Å.
Series [2] has as its target T1, linear (M1-linked) tetraubiquitin (UniProt P0CG48 1-76; P0CG48 1-76; P0CG48 1-76; P0CG48 1-76).
T1 construct: ubiquitin, first unit of four joined head to tail (M1-linked); ubiquitin, second unit; ubiquitin, third unit; ubiquitin, fourth unit; also called linear tetraubiquitin; linear tetra-ubiquitin; source: E. coli, purified (heat treatment, HiTrap SP, Superdex 200)
The description is as above. The note with it: both partners purified.

T1 sequence (P0CG48 1-304, one chain of several): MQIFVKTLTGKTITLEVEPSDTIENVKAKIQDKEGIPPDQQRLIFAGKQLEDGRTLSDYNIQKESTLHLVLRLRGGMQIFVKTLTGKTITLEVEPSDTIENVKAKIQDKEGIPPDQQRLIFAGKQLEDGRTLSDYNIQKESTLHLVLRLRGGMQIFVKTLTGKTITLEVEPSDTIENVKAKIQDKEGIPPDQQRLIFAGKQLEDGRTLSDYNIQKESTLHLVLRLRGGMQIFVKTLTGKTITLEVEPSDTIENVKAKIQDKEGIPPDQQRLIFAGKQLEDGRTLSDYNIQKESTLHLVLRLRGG

B1: human OPTN CC2-UBAN region (residues 416–510) (domain or fragment, UniProt Q96CV9 416-510, looked up)
chain: EKVDRAVLKELSEKLELAEKALASKQLQMDEMKQTIAKQEEDLETMTILRAQMEVYCSDFHAERAAREKIHEEKEQLALQLAVLLKENDAFEDGG
notes: residues 445-505 modelled for the longest chain; GST was cut off with Turbo3C (HRV3C) protease; also called OPTN-UBAN; source: E. coli Rosetta 2 (DE3), purified (glutathione Sepharose 4B, on-column cleavage, Resource Q, Superdex 75)
For the molecule B1, the “stoichiometry N” value in series [1] was found to be 2. For the same molecule, the binding result in series [2] is given as “binds”.
